The source of these data is patent US9695460B2, “Method of analyzing L-tryptophan in biological samples, and kit used therein” (Toyama Prefecture, priority 2011, dated 2017).

A value given as a limit tells only on which side of the number the result lay.

For data set [1], the system named is VioA, L-tryptophan oxidase derived from Chromobacterium violaceum, SEQ ID NO: 1. The settings on record: reported in Balibar and Walsh (2006) Biochemistry 45, 15444-15457; cited from earlier work.
Data set [2] deals with L-amino acid oxidase derived from Coprinus sp. The settings on record: Japanese Un-examined patent publication No. 2001-069974, read-out: Km value for L-tryptophan; cited from earlier work.
Substrate in data set [3]: N[C@@H](Cc1c[nH]c2ccccc12)C(=O)O
As to the kind of experiment: Km value of L-tryptophan oxidase StaO for L-tryptophan (peroxidase-coupled, absorbance at 505 nm). The settings on record: other: StaO, 20 mM tris-hydrochloric acid buffer pH 8.0, 30° C., 0-500 μM L-tryptophan, 0.5 mU/mL enzyme. The class given is biochemical, Streptomyces sp. TA-A0724. The text has this:
StaO is an enzyme that has the amino acid sequence given in SEQ ID NO: 2 in the Sequence Listing, that has oxidase activity of acting on L-tryptophan in the presence of oxygen and water to produce hydrogen peroxide and ammonia, that has oxidase activity on L-phenylalanine falling within a range of 0 to 3% of the oxidase activity on L-tryptophan, and that has no oxidase activity on the protein-constituting amino acids other than L-tryptophan and L-phenylalanine. StaO can be derived from Streptomyces sp. TA-A0724. The gene encoding StaO was discovered in the biosynthesis gene cluster of staurosporine, an antibiotic produced by the above bacterium (Onaka, H., Taniguchi, S., Igarashi, Y., and Furumai, T. (2002) J Antibiot 55, 1063-1071). This gene has no significant homology with the VioA gene, nor is there any example of biological analysis of the genetic product. Thus, the properties of the genetic product were unknown. […]
The supernatant of each solution of the ruptured expression strains was loaded onto an Ni Sepharose column made by GE Healthcare, washed with 20 mM Tris-HCl and 50 mM imidazole (pH 8.0), and then eluted with a solution of 20 mM Tris-HCl and 500 mM imidazole (pH 8.0) to purify and recover the target enzyme. The base sequences of these enzymes were determined, and are shown as SEQ ID NOS: 3 and 4. […]

Data set [4] is described as follows: Substrate specificity for amino acids of L-tryptophan oxidase (peroxidase-coupled, absorbance at 505 nm). The class given is biochemical. Here is the method: A reaction solution of 20 mM tris-hydrochloric acid buffer (pH 8.0), 5 mM L-tryptophan, 1 mM phenol, 1 mM 4-aminoantipyrine, 15 U/mL horseradish-derived peroxidase, and some quantity of L-tryptophan oxidase enzyme solution was prepared and the change in absorbance at 505 nm was measured at 30° C. The mol absorbance coefficient of quinoneimine dye was considered to be 6.4 mM^−1·cm^−1. Activity generating 1 μmol of hydrogen peroxide per minute was defined as 1 U. The detection limit of this method was 0.5%.
Reaction solutions each containing 20 mM of tris-hydrochloric acid buffer (pH 8.0), 1 mM of phenol, 1 mM of 4-aminoantipyrine, 15 U/mL of horseradish-derived peroxidase, 0.2 to 20 mU/mL of L-tryptophan oxidase, and 0.5 mM of an amino acid (one of the 20 protein-constituting amino acids) were prepared and the change in absorbance at 505 nm was measured at 30° C. The relative activity for each amino acid was calculated from the measurement values obtained, yielding the results given in Table 1. The detection limit of this method was 0.5%.

A short description of data set [5]: Dependence on reaction temperature. The class given is biochemical. As for the experimental part:
StaO and VioA activity measurement was conducted at reaction temperatures of 20, 30, 40, 50, and 60° C. An activity measurement reaction solution of 20 mM of tris-hydrochloric acid buffer (pH 8.0), 1 mM of L-tryptophan, 1 mM of phenol, 1 mM of 4-aminoantipyrine, 15 U/mL of horseradish-derived peroxidase, and L-tryptophan oxidase enzyme solution was employed. Everything in the above reaction solution but the peroxidase and L-tryptophan oxidase enzyme solution was admixed, and 10 minutes of preincubation was conducted at various temperatures. While maintaining the temperature of the reaction solution, the peroxidase and the L-tryptophan oxidase enzyme solution were added and the reaction was begun. The change in absorbance at 505 nm was rapidly measured. […] The effect of deactivation at high temperature became marked in StaO at 60° C. and in VioA at 50° C. and above, making it difficult to accurately measure the activity.

Data set [6] can be described thus: Thermal stability (residual activity after 1 hour heat treatment). The class given is physicochemical. The settings on record: activity prior to heat treatment as 100, StaO in 20% glycerol, VioA in 10% glycerol. Here is the method: The activity was measured after heat treating StaO enzyme solutions containing 20% glycerol and VioA enzyme solutions containing 10% glycerol for 1 hour at 30, 40, 50, 60, and 70° C. […] At heat treatments of 50° C. and above, the residual activity dropped below the detection limit.

Data set [7] can be described thus: Stability on storage at 4° C. at various glycerol concentrations. The class given is physicochemical. Here is the method: Glycerol was added to final concentrations of 0 to 50% (v/v) to StaO and VioA purified enzyme solutions. The enzymatic solutions were stored at 4° C., sampled over time, and the activity was measured. The change over time in the residual activity of StaO and VioA stored in the presence of various glycerol concentrations are given in FIGS. 7 and 8.

The mark [8] stands for this setting: 0.5 mM amino acid, pH 8.0, 30° C., No activity = at or below detection limit 0.5%.
Setting [9] is: activity at 20° C. as 100, 1 mM L-tryptophan, pH 8.0.
[10] abbreviates: activity at 20° C. as 100, * = estimated value when greatly impacted by thermal deactivation.

Take `N[C@@H](Cc1c[nH]c2ccccc12)C(=O)O` [L-tryptophan]: the figures for the Km in data set [1] and in data set [2] were 30 µM and 650 µM, respectively.

B1: StaO, L-tryptophan oxidase derived from Streptomyces sp. TA-A0724, SEQ ID NO: 2 (Streptomyces sp. TP-A0274) (protein)
chain: MTAPLQDSDGPDDAIGGPKQVTVIGAGIAGLVTAYELERLGHHVQIIEGSDDIGGRIHTHRFSGAGGPGPFAEMGAMRIPAGHRLTMHYIAELGLQNQVREFRTLFSDDAAYLPSSAGYLRVREAHDTLVDEFATGLPSAHYRQDTLLFGAWLDASIRAIAPRQFYDGLHNDIGVELLNLVDDIDLTPYRCGTARNRIDLHALFADHPRVRASCPPRLERFLDDVLDETSSSIVRLKDGMDELPRRLASRIRGKISLGQEVTGIDVHDDTVTLTVRQGLRTVTRTCDYVVCTIPFTVLRTLRLTGFDQDKLDIVHETKYWPATKIAFHCREPFWEKDGISGGASFTGGHVRQTYYPPAEGDPALGAVLLASYTIGPDAEALARMDEAERDALVAKELSVMHPELRRPGMVLAVAGRDWGARRWSRGAATVRWGQEAALREAERRECARPQKGLFFAGEHCSSKPAWIEGAIESAIDAAHEIEWYEPRASRVFAASRLSRSDRSA
notes: peroxidase-coupled assay
In the case of B1, the Km in data set [3] came to 19 μM μM.

B2: StaO: L-tryptophan oxidase with the amino acid sequence of SEQ ID NO: 2, derived from Streptomyces sp. TA-A0724, His-tagged, expressed in E. coli (protein)
chain: B1 chain
modifications: His tag; Streptomyces sp. TP-A0274
notes: TA-A0724, His-tagged, expressed in E. coli
Turning to B2, the “Relative activity, L-tryptophan” value in data set [4] (0.5 mM amino acid, pH 8.0, 30° C., L-tryptophan = 100%) worked out at 100%. For the same molecule, in data set [4] (setting [8]), the “Relative activity, L-tyrosine” value is given as “No activity” and the “Relative activity, other amino acids (17 listed in the footnote)” value is listed as “No activity”. Besides, the “Reactivity to amino acids other than L-tryptophan” value in data set [4] (relative activity below the detection limit (0.5%)) was “did not exhibit reactivity”. Besides, in data set [5] (setting [9]), the “Relative activity at reaction temperature 20° C.” value is recorded as 100, the “Relative activity at reaction temperature 30° C.” value came out at 156 and the “Relative activity at reaction temperature 40° C.” value was 268. Moreover, in data set [5] (setting [10]), the “Relative activity at reaction temperature 50° C.” value was 427 and the “Relative activity at reaction temperature 60° C.” value was 480*. In data set [5] (activity measurement at 20-60° C.), the “Reaction temperature at which the effect of deactivation became marked” value is 60 °C. For the same molecule, in data set [6], the “Relative (residual) activity following heat treatment at 30° C.” value came out at 73, the “Relative (residual) activity following heat treatment at 40° C.” value was 1 and the “Relative (residual) activity following heat treatment at ≧50° C.” value is less than 1. The “Stability of enzyme solution on storage” value in data set [7] (30% or more of glycerol added) is given as “high stability”. The “Stability of enzyme solution on storage” value in data set [7] (buffer only, no glycerol) was “unstable”.
